# Article PMC11676285, “Enhancement of the Thermostability of Microbacterium Esterase by Combinatorial Rational Design” (Molecules, 2024)
# Residue numbers refer to the chain shown, from its start. In names and notes the source's numbering stands.
# B1: EstSIT01 (Microbacterium aurantiacum) (protein)
# chain: MTLFDGITSRIVDTDRLTVNILERAADDPQTPPDRTVVFVHGNVSSALFWQEIMQDLPSDLRAIAVDLRGFGGSEHAPVDATRGVRDFSDDLHATLEALDIPVAHLVGWSMGGGVVMQYALDHPVLSLTLQSPVSPYGFGGTRRDGSRLTDDDAGCGGGGANPDFIQRLIDHDTSDDAQTSPRSVFRAGYVASDYTTDHEDVWVESMLTTSTADGNYPGDAVPSDNWPGFAAGRHGVLNTMAPQYFDVSGIVDLAEKPPILWIHGTADAIVSDASFYDLNYLGQLGIVPGWPGEDVAPAQEMVSQTRDVLGRYAAGGGTVTEVAVEGAGHSAHLERPAVFRHALLEIIGYVGAAADPAPPTEAIIIRSAD
# B2: EstSIT01 (Microbacterium aurantiacum; E301P/G215A/G293A) (protein)
# chain: B1 chain with G215A, G293A, E301P
# B3: EstSIT01 (Microbacterium aurantiacum; E301P/G215A) (protein)
# chain: B1 chain with G215A, E301P
# B4: EstSIT01 (Microbacterium aurantiacum; E301P) (protein)
# chain: B1 chain with E301P
# Substrate: COC(=O)[C@@H]1[C@H](C(=O)OC)N(Cc2ccccc2)C(=O)N1Cc1ccccc1
# Experiment: HPLC of biotin monomethyl ester, Michaelis-Menten fit
# Assay type: biochemical, Microbacterium aurantiacum
# Conditions: pH 8.0, 0.05 M PBS, 30 °C, substrate 0.1 to 10 mM
# Source text: HPLC of biotin monomethyl ester, Michaelis-Menten fit on […]01
Protein,Km,kcat,kcat/Km
B1,150 ± 20 µM,7.8 ± 0.31 s⁻¹,51900 M⁻¹ s⁻¹
B2,180 ± 30 µM,6.3 ± 0.39 s⁻¹,34900 M⁻¹ s⁻¹
B3,210 ± 40 µM,5.4 ± 0.37 s⁻¹,25600 M⁻¹ s⁻¹
B4,220 ± 30 µM,5.1 ± 0.28 s⁻¹,23200 M⁻¹ s⁻¹
